Reference: the DeepSol protein solubility set

Assay: soluble on expression in E. coli; label from the status in PepcDB or PDB records

Sequence | soluble on expression in E. coli
MLIGIDVGGTTTDAVLIRNGEVYSTAKVPTEPGDLLKSLLGALDEVSRGVPPEQFERVVFSTTVITNLIAEGKTERVALLLIPGPGVNPASYVFPDSFCIKGAMDYRGREIQPIDEEEVRGTVSRIRDQGFLRVAVVSKFGQRNPSHELRIEEIIREMH | not soluble
MGSDKIHHHHHHMEANNGKMERIQEMLRMFGLSSYEAQGFAALVYHGVANADTIASTANIPRTSAYKVMESLVRKGLAKATEGRPRMFKPAKMEEIRDYYEEKLQQLFRDLKELEDNAPSRGEPQLIYTINGSQKVMEKIEEMINLTEHEIMISTPKIIEIRKQMKKPIENAIKRGVRVVFVIPPNKRVPANVIVYRRDGLIATDIVSDQIRALIAGPDLETCGYSDNPMLSMHVYQFINILINKPEIQG | not soluble
MLSTGTKSLDSLLGGGFAPGVLTQVYGPYASGKTTLALQTGLLSGKKVAYVDTEGGFSPERLVQMAETRGLNPEEALSRFILFTPSDFKEQRRVIGSLKKTVDSNFALVVVDSITAHYRAEENRSGLIAELSRQLQVLLWIARKHNIPVIVINQVHFDSRTEMTKPVAEQTLGYRCKDILRLDKLPKPGLRVAVLERHRFRPEGLMAYFRITERGIEDVE | soluble
MKSPAPSRPQKMALIPACIFLCFAALSVQAEETPVTPQPPDILLGPLFNDVQNAKLFPDQKTFADAVPNSDPLMILADYRMQQNQSGFDLRHFVNVNFTLPKEGEKYVPPEGQSLREHIDGLWPVLTRSTENTEKWDSLLPLPEPYVVPGGRFREVYYWDSYFTMLGLAESGHWDKVADMVANFAHEIDTYGHIPNGNRSYYLSRSQPPFFALMVELLAQHEGDAALKQYLPQMQKEYAYWMDGVENLQAGQQEKRVVKLQDGTLLNRYWDDRDTPRPESWVEDIATAKSNPNRPATEIYRDLRSAAASGWDFSSRWMDNPQQLNTLRTTSIVPVDLNSLMFKMEKILARASKAAGDNAMANQYETLANARQKGIEKYLWNDQQGWYADYDLKSHKVRNQLTAAALFPLYVNAAAKDRANKMATATKTHLLQPGGLNTTSVKSGQQWDAPNGWAPLQWVATEGLQNYGQKEVAMDISWHFLTNVQHTYDREKKLVEKYDVSTTGTGGGGGEYPLQDGFGWTNGVTLKMLDLICPKEQPCDNVPATRPTVKSATTQPSTKEAQPTP | not soluble
MMTYEYILVRYGEMTTKGKNRSKFVSTLKDNVKFKLKKFPNIKIDATHDRMYIQLNGEDHEAVSERLKDVFGIHKFNLAMKVPSELEDIKKGALAAFLQVKGDVKTFKITVHRSYKHFPMRTMELLPEIGGHILENTEDITVDVHNPDVNVRVEIRSGYSYIMCDERMGAGGLPVGVGGKVMVLLSGGIDSPVAAYLTMKRGVSVEAVHFHSPPFTSERAKQKVIDLAQELTKYCKRVTLHLVPFTEVQKTINKEIPSSYSMTVMRRMMMRITERIAEERNALAITTGESLGQVASQTLDSMHTINEVTNYPVIRPLITMDKLEIIKIAEEIGTYDISIRPYEDCCTVFTPASPATKPKREKANRFEAKYDFTPLIDEAVANKETMVLQTVEVVAEEEKFEELF | not soluble
MLIVKTLVIIPTYNEAENIRPLVEDILDRYPEGLELLVIDDSSPDGTAGIVKAIMKNEPRVMLLSRPSKLGLGTAYLTGFRYALERGYERVIEMDADFSHDPASIASLIKAMDGADMVIGSRYMNNTVNVVNWPLSRLILSKSASIYSRWITGMPVSDPTSGFKCISAKALRFIALDRVRSQGYSFQIEIDFRVWKKNLVIHEVPIIFVDRSVGKSKMTRKNIVEAVWMVWWLKFLSIIGRLLEHHHHHH | not soluble
GPGSMSRYSTGIENIPSLFDLASALTGFIADFTQVVFGNTQTSFTAAALEETDRGNYDPVARSWEGTGGLNYRVPLYPIPSERHTRERTRNIKILMDNCRRICVEDELPSTKEELQFWTAYRFMKYQMYLTPTCVIMPPLYVMWRMFHDRIPRPFRGRTIPVTLSLALAEQWADATYPGHQFLSTALRAKTPMGDAARAEWLRLQPIDIPYYIYAAYQFQHFFGNVPKEILFGGDIAGYCS | not soluble
